Test results: publication PMC4605297

Target: T1, SsOGT wild type (Sulfolobus solfataricus) (UniProt Q97VW7)
T1 sequence: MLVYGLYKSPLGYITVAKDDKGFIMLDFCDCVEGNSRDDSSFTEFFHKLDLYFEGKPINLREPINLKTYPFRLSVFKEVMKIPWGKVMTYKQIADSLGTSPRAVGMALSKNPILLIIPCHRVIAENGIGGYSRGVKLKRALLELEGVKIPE
Experiment: competition
Settings: EMSA: 0-25 uM protein, 0.2 uM probe, 37 C 10 min, 10 ul, buffer as ref. 17, 8% native PAGE in 1X TBE pH 8.3, competition: BG-VG assay, 50 C under ref. …

Sequence | Ki (O6-methylguanine at position 21 of strand 1) [nM] | Ki (O6-methylguanine at position 26 of strand 1) [nM]
GGACACTGTACGTTAAGGCGGATCGAATTAGGATTAA / GGTTAATCCTAATTCGATCGCCTTAACGTACAGTGT [ds-UPm] | 280 | –
GGCAGTAGGCCTAGCATGACAATCTGCATTGGTGATCACGG / CGCTCATCCACAATGCAGATTGTCATGCTAGGCCTACTGCC [ds-Fwdm26] | – | 830
